One data set deals with T1, NTT1ΔC (Arabidopsis thaliana, UniProt Q39002).
T1 construct: gene AATP1; mature form (first 79 residues removed) with last 41 residues deleted (deletion borders computed from a recalled length of 624); tagged; E. coli; purified in LAPAO; partly aggregated
T1 sequence (Q39002 80-583): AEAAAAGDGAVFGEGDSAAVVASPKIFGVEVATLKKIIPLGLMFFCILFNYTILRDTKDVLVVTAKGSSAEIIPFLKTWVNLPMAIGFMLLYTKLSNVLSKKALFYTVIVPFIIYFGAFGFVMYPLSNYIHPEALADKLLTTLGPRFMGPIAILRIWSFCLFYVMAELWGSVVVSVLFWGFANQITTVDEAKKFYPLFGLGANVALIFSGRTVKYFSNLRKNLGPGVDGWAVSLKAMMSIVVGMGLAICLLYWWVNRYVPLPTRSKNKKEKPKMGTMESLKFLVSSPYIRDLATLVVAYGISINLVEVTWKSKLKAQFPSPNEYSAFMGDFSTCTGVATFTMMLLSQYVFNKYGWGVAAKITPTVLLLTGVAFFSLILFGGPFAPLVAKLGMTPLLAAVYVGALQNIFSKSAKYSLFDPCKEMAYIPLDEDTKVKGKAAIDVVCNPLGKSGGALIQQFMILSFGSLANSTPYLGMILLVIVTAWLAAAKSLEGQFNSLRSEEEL
The experiment in a line: tryptophan fluorescence variation, two-site fit. Format: binding. Conditions: 20 mM Tris pH 8, 10 mM NaCl, 0.1% LAPAO, 25°C, stronger site of two-site fit. An excerpt: tryptophan fluorescence variation, two-site fit on NTT1ΔC

Data set [1] deals with T2, NTT1 (plastid / chloroplast ATP/ADP transporter 1) (Arabidopsis thaliana, UniProt Q39002).
T2 construct: gene AATP1; mature form lacking first 79 residues (transit peptide), N-terminal His-tag, C-terminal StreptagII; E. coli; purified in LAPAO; monomers and dimers
T2 sequence (Q39002 80-624): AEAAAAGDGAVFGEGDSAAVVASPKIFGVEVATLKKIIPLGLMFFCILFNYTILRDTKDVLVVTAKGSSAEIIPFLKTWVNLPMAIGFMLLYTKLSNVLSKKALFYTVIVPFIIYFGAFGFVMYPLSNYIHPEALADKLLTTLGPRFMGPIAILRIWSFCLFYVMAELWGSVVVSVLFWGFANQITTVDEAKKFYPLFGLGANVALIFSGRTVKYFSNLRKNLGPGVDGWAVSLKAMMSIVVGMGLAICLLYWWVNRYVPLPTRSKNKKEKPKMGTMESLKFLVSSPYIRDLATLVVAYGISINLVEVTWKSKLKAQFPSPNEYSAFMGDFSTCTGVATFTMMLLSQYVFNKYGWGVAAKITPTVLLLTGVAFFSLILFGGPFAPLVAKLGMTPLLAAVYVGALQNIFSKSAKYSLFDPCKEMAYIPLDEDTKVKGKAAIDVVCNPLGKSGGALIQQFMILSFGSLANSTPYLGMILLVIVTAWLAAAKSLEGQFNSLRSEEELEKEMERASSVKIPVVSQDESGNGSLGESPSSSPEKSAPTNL
The experiment in a line: tryptophan fluorescence quenching. Format: binding. Conditions: 20 mM Tris pH 8, 10 mM NaCl, 0.1% LAPAO, 25°C; no Mg2+, no Pi; one-site fit; read-out: Affinity. The source says: tryptophan fluorescence quenching on NTT1 (plastid / chloroplast ATP/ADP transporter 1)

Data set [2] deals with T3, NTT1 (plastid / chloroplast ATP/ADP transporter 1) (Arabidopsis thaliana, UniProt Q39002, E246K).
T3 construct: gene AATP1; mature form lacking first 79 residues (transit peptide), N-terminal His-tag, C-terminal StreptagII; E. coli; purified in LAPAO; monomers and dimers
T3 sequence (Q39002 80-624 E246K): T2 sequence (Q39002 80-624) with E167K
The experiment in a line: tryptophan fluorescence variation. Type of data set: binding. The source says: (§1) tryptophan fluorescence variation on NTT1 (plastid / chloroplast ATP/ADP transporter 1)

Data set [3] deals with T4, NTT1 (plastid / chloroplast ATP/ADP transporter 1) (Arabidopsis thaliana, UniProt Q39002, K528E).
T4 construct: gene AATP1; mature form lacking first 79 residues (transit peptide), N-terminal His-tag, C-terminal StreptagII; E. coli; purified in LAPAO; monomers and dimers
T4 sequence (Q39002 80-624 K528E): T2 sequence (Q39002 80-624) with K449E
The experiment in a line: tryptophan fluorescence variation. Format: binding. The conditions noted are these: read-out: Affinity for ADP.
From the text: as §1

Data set [4] addresses T5, NTT1 (plastid / chloroplast ATP/ADP transporter 1) (Arabidopsis thaliana, UniProt Q39002, K528R).
T5 construct: gene AATP1; mature form lacking first 79 residues (transit peptide), N-terminal His-tag, C-terminal StreptagII; E. coli; purified in LAPAO; monomers and dimers
T5 sequence (Q39002 80-624 K528R): T2 sequence (Q39002 80-624) with K449R
The experiment in a line: tryptophan fluorescence variation. Type of data set: binding.
From the text: as §1

Data set [5] has as its target T6, NTT1 (plastid / chloroplast ATP/ADP transporter 1) (Arabidopsis thaliana, UniProt Q39002, K156R).
T6 construct: gene AATP1; mature form lacking first 79 residues (transit peptide), N-terminal His-tag, C-terminal StreptagII; E. coli; purified in LAPAO; monomers and dimers
T6 sequence (Q39002 80-624 K156R): T2 sequence (Q39002 80-624) with K77R
The experiment in a line: tryptophan fluorescence variation. Type of data set: binding. The conditions noted are these: read-out: Affinity for ATP.
From the text: as §1

The target in data set [6] is Chloroplast ATP/ADP transporter 1 (NTT1), mature form (Arabidopsis thaliana). The experiment in a line: AUC; sedimentation velocity, purified protein in 20 mM Tris pH 8, 100 mM NaCl, 0.1% LAPAO, 3 mM desthiobiotin; 42,000 rpm, 10°C; c(s) analysis, absorbance and interference.
Data set [7] shares this target. The experiment in a line: AUC; sedimentation velocity, NTT1 exchanged from detergent into amphipols; 42,000 rpm, 10°C.
For data set [8] the target is unchanged. The experiment in a line: AUC; sedimentation velocity, NTT1 solubilised and purified in β-DDM; 42,000 rpm, 10°C.
Data set [9] has the same target. The experiment in a line: AUC; sedimentation velocity, NTT1 solubilised and purified in FC12; 42,000 rpm, 10°C.
Data set [10] shares this target. The experiment in a line: Multiple Angle Laser Light Scattering; purified NTT1 in LAPAO; data not shown.
Substrate in data set [11]: Nc1ncnc2c1ncn2[C@@H]1O[C@H](COP(=O)(O)OP(=O)(O)O)[C@@H](O)[C@H]1O
The experiment in a line: ATP/ADP exchange by luciferase luminescence, whole E. coli cells. The conditions noted are these: transport Km; C-terminal Mistic fusion. Format: cell-based, Arabidopsis thaliana.

Substrate in data set [12]: Nc1ncnc2c1ncn2[C@@H]1O[C@H](COP(=O)(O)OP(=O)(O)OP(=O)(O)O)[C@@H](O)[C@H]1O
The experiment in a line: radioactive ATP uptake in whole E. coli cells. Format: cell-based, Arabidopsis thaliana. Conditions: transport Km; C-terminal Mistic fusion. An excerpt: radioactive ATP uptake in whole E. coli cells on […]

Residue numbers refer to the chain shown, from its start. Read-outs that look alike come from different tables or passages of the source.

Regarding `Nc1ncnc2c1ncn2[C@@H]1O[C@H](COP(=O)(O)OP(=O)(O)O)[C@@H](O)[C@H]1O` [ADP], the Kd on NTT1ΔC (read-out: Affinity for ADP) is 0.6 ± 0.7 µM; in data set [1] it was 8.6 ± 1.5 µM; in data set [2] (read-out: Affinity for ADP) it was 14 ± 5.1 µM; in data set [3], 19 ± 24.1 µM; in data set [4] (read-out: Affinity for ADP), 33.5 ± 22.3 µM.

Regarding `Nc1ncnc2c1ncn2[C@@H]1O[C@H](COP(=O)(O)OP(=O)(O)OP(=O)(O)O)[C@@H](O)[C@H]1O` [ATP], the Kd was 0.7 ± 0.5 µM on NTT1ΔC (read-out: Affinity for ATP); 4.2 ± 0.7 µM in data set [1]; 1.9 ± 1.7 µM in data set [2] (read-out: Affinity for ATP); over 1000 µM in [4] (read-out: Affinity for ATP); 91.2 ± 58.8 µM in data set [5].

As for “Chloroplast ATP/ADP transporter 1 (NTT1), mature form (natural protein)”, the dimer (% of the three species) in [6] was 35%; in [7], 33%; in [8], 29%; in data set [9], 35%. Besides, the stoichiometry N (in general, a count of units in the complex or per binding partner) in data set [6] came to 2; in data set [10] it was 4. Besides, the tetramer (% of the three species) in [6] worked out at 23%; in [7] it was 23%; in data set [9], 18%.

B1: NTT1mis (Arabidopsis thaliana) (protein)
chain: T2 sequence (Q39002 80-624)
notes: expressed in E. coli, assayed in whole cells; with Protein mistic
For the molecule B1, the Km – broadly, the concentration of substrate that gives half-maximal velocity – in data set [11] was 12.0 ± 5.2 µM; in [12], 13.2 ± 5.3 µM.
